Measurements: paper PMC9518701
Where two headings read alike, the source gives them in different places.

Legend:
[1] = biological target: SARS-CoV-2 spike protein receptor binding domain (RBD) (SARS-CoV-2, wild type (Wuhan-Hu-1 reference)) (UniProt P0DTC2)
[2] = biological target: SARS-CoV-2 spike protein receptor binding domain (RBD) (SARS-CoV-2, wild type (Wuhan-Hu-1 reference)) (UniProt P0DTC2); assay: SPR
FcγRIIIa (F158) = assay: SPR
FcγRIIa (H131) = assay: SPR
FcγRI = assay: SPR
FcγRIIb = assay: SPR
FcγRIIIa (V158) = assay: SPR
FcγRIIa (R131) = assay: SPR
[3] = biological target: human neonatal Fc receptor (FcRn) (human) (UniProt P55899); assay: SPR; pH 6.0
[4] = biological target: SARS-CoV-2 spike protein receptor binding domain (RBD) (SARS-CoV-2) (UniProt P0DTC2)
[5] = biological target: SARS-CoV-2 spike protein receptor binding domain (RBD) (SARS-CoV-2) (UniProt P0DTC2); remark: listed apart in the source
[6] = biological target: SARS-CoV-2 spike protein receptor binding domain (RBD) (SARS-CoV-2) (UniProt P0DTC2); remark: listed apart in the source

human neonatal Fc receptor (FcRn) (human), sequence (P55899 24-297, chain 1 of 2): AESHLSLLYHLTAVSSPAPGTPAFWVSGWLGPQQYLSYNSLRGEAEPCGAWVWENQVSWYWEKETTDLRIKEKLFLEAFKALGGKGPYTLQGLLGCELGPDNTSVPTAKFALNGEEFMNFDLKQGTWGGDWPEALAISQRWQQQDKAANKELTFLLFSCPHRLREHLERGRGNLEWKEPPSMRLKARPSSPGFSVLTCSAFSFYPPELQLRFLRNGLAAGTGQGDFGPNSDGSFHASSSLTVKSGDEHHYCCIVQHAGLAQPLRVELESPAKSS
human neonatal Fc receptor (FcRn) (human), sequence (partner, as listed by the source, chain 2 of 2): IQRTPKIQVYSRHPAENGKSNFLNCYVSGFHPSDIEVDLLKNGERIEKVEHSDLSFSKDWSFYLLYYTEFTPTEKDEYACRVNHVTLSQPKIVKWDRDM

amubarvimab (BRII-196) (antibody)
other [1]: 0.026 µg/mL | Kd [2]: 5.88 nM

romlusevimab (BRII-198)
Kd (FcγRIIIa (F158)): 4450 nM | Kd (FcγRIIa (H131)): 13200 nM | Kd (FcγRI): 2.77 nM | Kd (FcγRIIb): 35300 nM | Kd (FcγRIIIa (V158)): 731 nM | Kd (FcγRIIa (R131)): 23700 nM | Kd [3]: 0.36 nM

combination of amubarvimab and romlusevimab
other [4]: 0.047 µg/mL | IC50 [5]: 16.4 nM | other [6]: 0.16 µg/mL
